Laboratory results taken from paper PMC11394972 (International Journal of Molecular Sciences, 2024).

B1: MazE-mt3 (Leu46-Trp82) peptide (peptide)
peptide: LTGQIDRALESIHGTDEAEALAVANAYRVLETMDDEW
B2: MazF-mt3 (tag-removed form used for crystallization) (enzyme)
chain: GPELMVISRAEIYWADLGPPSGSQPAKRRPVLVIQSDPYNASRLATVIAAVITSNTALAAMPGNVFLPATTTRLPRDSVVNVTAIVTLNKTDLTDRVGEVPASLMHEVDRGLRRVLDL

Tests used:
[1] = molecular target: B2; assay: crystal structure; conditions: both partners purified
crystal structure = molecular target: the molecule itself; assay: crystal structure

Binder | stoichiometry N [1] | stoichiometry N (crystal structure)
B1 | 2 toxin chains per antitoxin chain | –
B2 | – | 2 subunits in the oligomer
